According to FireProtDB (doi:10.1021/bi00146a008):

B1: Lysozyme C, P61626 (parent)
chain: MKALIVLGLVLLSVTVQGKVFERCELARTLKRLGMDGYRGISLANWMCLAKWESGYNTRATNYNAGDRSTDYGIFQINSRYWCNDGKTPGAVNACHLSCSALLQDNIADAVACAKRVVRDPQGIRAWVAWRNRCQNRDVRQYVQGCGV

Variants of: B1
Conditions: Homo sapiens, pH 2.8, Thermal, DSC, glycine-HCl 50 mM, reversible: yes, structure 1LZ1, whole UniProt chain shown

| Variant | ddG of mutation (higher = less stable) (68.8 °C) | heat capacity change of unfolding (68.8 °C) | unfolding enthalpy (calorimetric) (68.8 °C) | Tm | change of melting temperature, mutant - wild type (higher = more stable) | heat capacity change of unfolding |
| --- | --- | --- | --- | --- | --- | --- |
| A65P | -0.1 kcal/mol | 1.56 kcal/mol/K | 119 kcal/mol | 69.1 °C | 0.3 °C | 1.56 kcal/mol/K |
| P89G | 1.6 kcal/mol | 1.58 kcal/mol/K | 121 kcal/mol | 64.1 °C | -4.7 °C | 1.58 kcal/mol/K |
| P89G P121G | 1.6 kcal/mol | 1.58 kcal/mol/K | 120 kcal/mol | 64.3 °C | -4.5 °C | 1.58 kcal/mol/K |
| D109P | 0.4 kcal/mol | 1.57 kcal/mol/K | 115 kcal/mol | 67.7 °C | -1.1 °C | 1.57 kcal/mol/K |
| V128P | -0.5 kcal/mol | 1.57 kcal/mol/K | 120 kcal/mol | 70 °C | 1.2 °C | 1.57 kcal/mol/K |
| P121G | 0.1 kcal/mol | 1.58 kcal/mol/K | 120 kcal/mol | 68.7 °C | -0.1 °C | 1.58 kcal/mol/K |
